Measured values from paper PMC8514426 (Nature Communications, 2021).

B1: wild-type YibK–SH2 (expressed as SS–YibK–SH2) (natural protein)
chain: MLDIVLYEPEIPQNTGNIIRLCANTGFRLHLIEPLGFTWDDKRLRRSGLDYHEFAEIKRHKTFEAFLESEKPKRLFALTTKGCPAHSQVKFKLGDYLMFGPETRGIPMSILNEMPMEQKIRIPMTANSRSMNLSNSVAVTVYEAWRQLGYKGAVNLPEVK
notes: also called WT; not shown: SH2 domain of ABL1 kinase, C-terminal, kept

Assays:
[1] = molecular target: purified YibK protein with R146C (21.6 kDa monomer) (UniProt P44868); experiment: SDS-PAGE without reducing agent and Western blot (disulfide-linked dimer); purified YibK protein, no reducing agent
two-hybrid = molecular target: the molecule itself; experiment: two-hybrid

Molecule | stoichiometry N [1] | fold P_cadBA transcriptional activation over cytoplasmic YibK–SH2 (two-hybrid) [fold]
purified YibK protein with R146C (21.6 kDa monomer) (from UniProt P44868) (natural protein) | 2 | 
B1 |  | 66
